The record followed here is patent US20180355043A1 (Janssen / Centocor, published 2018).

Where a chain is given by its changes, count along the chain named. Like-named read-outs stand apart in the source and are kept apart here.

Assay [1] has as its target T1, DR4G103: Human HLA-DRA1*01:02/DRB1*15:01 ECD with hemagglutinin peptide HA_304-318 (human).
T1 construct: also called DRB1*15:01 HA
The assay can be described thus: MSD ECL; antigen coated; protocol of Example 3.

Assay [2] deals with T2, DR4G104: Human HLA-DRA1*01:02/DRB1*04:02 ECD with hemagglutinin peptide HA_304-318 (human).
T2 construct: also called DRB1*04:02 HA
The assay can be described thus: MSD ECL; antigen coated; protocol of Example 3.
Procedure: (§1) The soluble antigens of DR, DP and DQ were coated on MSD standard plates (Meso Scale Discovery, Cat. No. L15XA-3) at 5 μg/ml at 4° C. overnight. […] Binding to DR antigens was tested with four antibody concentrations ranging from 0.04-5 μg/ml. Binding to DP and DQ antigens was tested with one concentration at 5 μg/ml. After three washes, SulfoTag anti-human/NHP Kappa secondary antibody (Meso Scale Discovery, Cat. No. D20TF-6) was added and incubated for 1 hour. After another three washes, the plates were read under MSD reader (Meso Scale Discovery), and electrochemiluminescence (ECL) was measured.
(§2) Select antibodies were further characterized for their binding to soluble HLA-DR, HLA-DQ and HLA-DP antigens in complex with various peptides which were covalently attached to the N-terminus of the beta chains.

The target in assay [3] is T3, DR4G119: Human HLA-DRA1*01:02/DRB1*10:01 ECD with hemagglutinin peptide HA_304-318 (human).
T3 construct: also called DRB1*10:01 HA
The assay can be described thus: MSD ECL; antigen coated; protocol of Example 3.
Procedure: as §1, §2

The target in assay [4] is T4, DR4G89: Human HLA-DRA1*01:02/DRB1*04:01 ECD with hemagglutinin peptide HA_304-318 (human).
T4 construct: also called DRG89; HLA-DR4 with HA_304-318
In words: MSD ECL; antigen coated; mAb 0.2 µg/ml.
Procedure: (§3) Select generated antibodies were characterized for their binding to soluble HLA-DR, HLA-DQ or HLA-DP antigens with various peptides attached to the N-terminus of the beta chains. […] The soluble antigens of DR, DP and DQ were coated on MSD standard plates (Meso Scale Discovery, Cat. No. L15XA-3) at 5 μg/ml at 4° C. overnight. […] Binding to DR antigens was tested with four antibody concentrations ranging from 0.04-5 μg/ml. Binding to DP and DQ antigens was tested with one concentration at 5 μg/ml. After three washes, SulfoTag anti-human/NHP Kappa secondary antibody (Meso Scale Discovery, Cat. No. D20TF-6) was added and incubated for 1 hour. After another three washes, the plates were read under MSD reader (Meso Scale Discovery), and electrochemiluminescence (ECL) was measured.

The target of assay [5] is T5, DR4G93: Human HLA-DRA1*01:02/DRB1*01:01 ECD with hemagglutinin peptide HA_304-318 (human).
T5 construct: also called HLA-DR1 with HA_304-318
The assay can be described thus: MSD ECL; antigen coated; mAb 0.2 µg/ml.
Procedure: as §3

Assay [6] addresses T4, DR4G89: Human HLA-DRA1*01:02/DRB1*04:01 …. The assay can be described thus: MSD ECL; antigen coated; mAb 0.2 µg/ml. The source holds these as a separate data set.
Assay [7] concerns the target T5, DR4G93: Human HLA-DRA1*01:02/DRB1*01:01 …. The assay can be described thus: MSD ECL; antigen coated; mAb 0.2 µg/ml. This is another data set of the same source.
Assay [8] deals with T4, DR4G89: Human HLA-DRA1*01:02/DRB1*04:01 …. In words: SPR ProteOn XPR36; mAb amine-coupled, antigen as analyte; 25 °C.
In assay [9] the target is T5, DR4G93: Human HLA-DRA1*01:02/DRB1*01:01 …. The description is as above.
Assay [10] has as its target T1, DR4G103: Human …. The assay can be described thus: MSD ECL; antigen coated.
Assay [11] addresses T2, DR4G104: Human …. The assay can be described thus: MSD ECL; antigen coated.
Assay [12] addresses T4, DR4G89: Human HLA-DRA1*01:02/DRB1*04:01 …. The assay can be described thus: MSD ECL; antigen coated.
The target in assay [13] is T5, DR4G93: Human HLA-DRA1*01:02/DRB1*01:01 …. In words: MSD ECL; antigen coated.

B1: DR4B6 (antibody, V domains shown)
VH: QIQLVQSGPELKKPGETVKISCKASGFTFTNYGMNWVKQAPGKGLKWMGWINTYTREPTYADDFKGRFAFSLETSASTAYLQINNLKNEDTAKYFCARDITAVVPTGFDYWGQGTTLTVSS
VL: DIQMTQSPASLSVSVGETVTITCRASENIYSNLAWYRQKQGKSPQLLVFAASNLADGVPSRFSGSGSGTQYSLKINSLQSEDFGDYYCQHFWTTPWAFGGGTNLEIK
notes: also called L243 re-engineered as IgG2sigma
B1: the ECL signal in assay [1] is 142000 ECL; in assay [2], 415000 ECL; in assay [3] it was 580000 ECL; in assay [4], 1.34e+06 ECL; in assay [5], 1.32e+06 ECL.

B2: DR4B98 (antibody, human IgG2, kappa, V domains shown)
VH: QVQLVQSGAEVKKPGSSVKVSCKASGGTFKSYYIHWVRQAPGQGLEWMGGIAPIYGTAYYAQKFQGRVTITADESTSTAYMELSSLRSEDTAVYYCARDASWARAYGFDYWGQGTLVTVSS
VL: EIVLTQSPATLSLSPGERATLSCRASQSVSSYLAWYQQKPGQAPRLLIYDASNRATGIPARFSGSGSGTDFTLTISSLEPEDFAVYYCQQRSNWPLTFGQGTKVEIKR
notes: also called VH DR4H50 / VL PH9L3
Turning to B2, the ECL signal in assay [1] turned out to be 34700 ECL; in assay [2], 421000 ECL; in [3], 94700 ECL; in [4], 775000 ECL; in assay [5], 140000 ECL.

B3: DR4B30 (antibody, human IgG2, kappa, V domains shown)
VH: EVQLVQSGAEVKKPGESLKISCKGSGYSFTSDWIGWVRQMPGKGLEWMGIIRPGDSDTYYSPSFQGQVTISADKSISTAYLQWSSLKASDTAVYYCARESYYYVGVRYRPSYYFDYWGQGTLVTVSS
VL: B2 VL
notes: also called VH DR4H39 / VL PH9L3
For B3, the ECL signal in [4] is 1.13e+06 ECL; in [5], 1.07e+06 ECL; in [6], 1.13e+06 ECL; in [7] it was 1.07e+06 ECL.

B4: DR4B78 (antibody, human IgG2, kappa, V domains shown)
VH: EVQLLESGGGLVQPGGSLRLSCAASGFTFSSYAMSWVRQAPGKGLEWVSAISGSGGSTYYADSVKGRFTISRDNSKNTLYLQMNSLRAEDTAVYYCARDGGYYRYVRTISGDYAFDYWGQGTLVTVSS
VL: B2 VL
notes: also called VH DR4H62 / VL PH9L3
Turning to B4, the ECL signal in [6] worked out at 979000 ECL; in assay [7] it was 1.06e+06 ECL.

B5: DR4B38 (antibody, human IgG2, kappa, V domains shown)
VH: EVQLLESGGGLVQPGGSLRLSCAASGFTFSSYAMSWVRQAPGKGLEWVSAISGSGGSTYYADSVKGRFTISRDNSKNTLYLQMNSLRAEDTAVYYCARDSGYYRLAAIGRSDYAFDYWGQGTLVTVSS
VL: B2 VL
notes: also called VH DR4H56 / VL PH9L3
For the molecule B5, the ECL signal in assay [6] came out at 1.22e+06 ECL; in assay [7] it was 1.12e+06 ECL.

B6: DR4B22 (antibody, human IgG2, kappa, V domains shown)
VH: EVQLLESGGGLVQPGGSLRLSCAASGFTFSSYAMNWVRQAPGKGLEWVSAISGSGGYTNYADSVKGRFTISRDNSKNTLYLQMNSLRAEDTAVYYCARDGGYYRYVYRYPGDYAFGYWGQGTLVTVSS
VL: B2 VL
notes: also called VH DR4H16 / VL PH9L3
With B6, the ECL signal in assay [6] amounted to 1.01e+06 ECL; in assay [7], 896000 ECL.

B7: DR4B70 (antibody, human IgG2, kappa, V domains shown)
VH: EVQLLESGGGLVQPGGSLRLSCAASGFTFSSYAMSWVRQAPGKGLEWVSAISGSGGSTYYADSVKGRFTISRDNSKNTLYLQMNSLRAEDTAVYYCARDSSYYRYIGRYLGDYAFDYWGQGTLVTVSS
VL: B2 VL
notes: also called VH DR4H29 / VL PH9L3
With B7, the ECL signal in assay [6] is 888000 ECL; in assay [7] it was 972000 ECL.

B8: DR4B127 (antibody, human IgG2, kappa, V domains shown)
VH: B2 VH with A52R, Y55S, T57N, Y59E, W102Y, A103Y, A105N
VL: B2 VL
notes: also called VH DR4H7 / VL PH9L3
The term Kd denotes a measure of binding affinity in units of concentration. Low values mean tighter binding, high ones weaker binding. What is called koff is the first-order rate constant of dissociation. The low end stands for slow dissociation, the high end for fast dissociation. A word on the kon: it is the second-order rate constant of association. A higher kon goes with faster complex formation. With B8, the ECL signal in [1] turned out to be 334000 ECL; in [2] it was 1.27e+06 ECL; in assay [3], 1.24e+06 ECL; in assay [4], 1.03e+06 ECL; in assay [5], 918000 ECL. Moreover, the Kd in [8] came out at 9.19 nM; in assay [9], 47.7 nM. Also, the results for the koff in [8] and in assay [9] were 0.000155 s⁻¹ and 0.00092 s⁻¹, respectively. Also, the kon in [8] turned out to be 16800 M⁻¹ s⁻¹; in [9] it was 19300 M⁻¹ s⁻¹.

B9: DR4B4 (antibody, V domains shown)
VH: QVQLKESGPGLVAPSQSLSITCTISGFSLTSYGVHWVRQPPGKGLEWLVVIWSDGSTTYNSALKSRLSISKDNSKSQVFLKMNSLQTDDTAIYYCASHYGSTLAFASWGHGTLVTVSA
VL: DIQMTQSPASLSASVGETVTIICRASVNIYSYLAWYQQKQGKSPQLLVYNAKILAEGVPSRFSGSGSGTQFSLKINSLQPEDFGSYYCQHHYGPFTFGSGTKLEIK
notes: also called Lym-1 re-engineered as IgG2sigma
Turning to B9, the binding result in [10] and in assay [11] was “no binding” throughout. Also, the ECL signal is 287 ECL in assay [1]; 451 ECL in [2]; 572000 ECL in [3]; 1.28e+06 ECL in [4]; 888000 ECL in [5].

B10: DR4B5 (antibody, V domains shown)
VH: QVQLQESGPGLVKPSETLSLTCTVSGFSLTNYGVHWVRQSPGKGLEWIGVKWSGGSTEYNAAFISRLTISKDTSKNQVSLKLNSLTAADTAVYYCARNDRYAMDYWGQGTLVTVSS
VL: DIQMTQSPSSLSASVGDRVTITCRASENIYSYLAWYQQKPGKAPKLLVSNAKTLAEGVPSRFSGSGSGKQFTLTISSLQPEDFATYYCQHHYGNSYPFGQGTKLEIK
notes: also called apolizumab (1D10) re-engineered as IgG2sigma
Consider B10, for which the binding result in assay [10] and in assay [11] was “no binding” throughout. Moreover, the ECL signal in [1] worked out at 329 ECL; in assay [2] it was 825 ECL; in assay [3] it was 132000 ECL; in assay [4], 1.26e+06 ECL; in assay [5] it was 1.3e+06 ECL.

B11: DR4B33 (antibody, human IgG2, kappa, V domains shown)
VH: EVQLVQSGAEVKKPGESLKISCKGSGYSFDSAYINWVRQMPGKGLEWMGIIRPGDSRTRYSPSFQGQVTISADKSISTAYLQWSSLKASDTAVYYCARDGYYFVGSIIYYGMDVWGQGTLVTVSS
VL: not shown
notes: also called VH DR4H58 / VL PH9L4
Turning to B11, the binding result in [12] and in [13] was “binds” each time.
